From patent US10370642B2, “Hematopoietic progenitor cell populations having affinity for E-selectin / L-selectin” (priority 2000, dated 2019)

T1: L-selectin (Rattus norvegicus, UniProt P30836)
T1 construct: L-selectin naturally expressed on leukocytes; endogenous in cells; host or cells: lymphocytes (rat thoracic duct lymphocytes; human PBMC also prepared)
T1 sequence (P30836 39-372): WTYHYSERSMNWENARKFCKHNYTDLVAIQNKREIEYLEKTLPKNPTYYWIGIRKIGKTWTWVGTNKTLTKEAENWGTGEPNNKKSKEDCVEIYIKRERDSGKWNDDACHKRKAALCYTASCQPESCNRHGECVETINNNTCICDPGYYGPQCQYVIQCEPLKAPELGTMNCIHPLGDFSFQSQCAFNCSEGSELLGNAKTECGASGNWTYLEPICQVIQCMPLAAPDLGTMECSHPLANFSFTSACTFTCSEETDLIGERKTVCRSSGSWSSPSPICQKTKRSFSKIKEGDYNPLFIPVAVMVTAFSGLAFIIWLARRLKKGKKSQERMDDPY

T2: E-selectin (Homo sapiens, UniProt P16581)
T2 construct: stably transfected with full-length cDNA encoding human E-selectin; expressed in transfected cells
T2 sequence (P16581 22-610): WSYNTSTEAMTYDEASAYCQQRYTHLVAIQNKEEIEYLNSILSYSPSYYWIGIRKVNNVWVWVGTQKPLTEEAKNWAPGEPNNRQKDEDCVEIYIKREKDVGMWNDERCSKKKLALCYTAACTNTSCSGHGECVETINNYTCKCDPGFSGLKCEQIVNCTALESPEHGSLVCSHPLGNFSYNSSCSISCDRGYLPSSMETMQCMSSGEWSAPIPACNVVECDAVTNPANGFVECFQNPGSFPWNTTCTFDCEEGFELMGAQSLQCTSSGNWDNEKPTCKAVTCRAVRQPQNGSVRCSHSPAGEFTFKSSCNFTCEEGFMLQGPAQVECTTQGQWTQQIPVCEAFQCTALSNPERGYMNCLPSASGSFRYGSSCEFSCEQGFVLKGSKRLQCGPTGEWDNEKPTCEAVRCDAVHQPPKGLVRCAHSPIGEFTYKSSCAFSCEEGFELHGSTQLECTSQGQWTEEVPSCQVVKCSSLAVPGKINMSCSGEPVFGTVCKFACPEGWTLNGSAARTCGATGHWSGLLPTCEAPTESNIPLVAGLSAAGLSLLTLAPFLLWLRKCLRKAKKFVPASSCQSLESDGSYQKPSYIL


Legend:
KG1a cells = experiment: CHO-E cell rolling on glutaraldehyde-fixed KG1a monolayers; assay type: cell-based, human; settings: 2.8 dynes/cm^2; EDTA 5 mM; HECA 452 50 μg/ml
Excerpt: (§1) E-selectin-mediated adhesive interactions, under defined shear stress, were examined between hematopoietic cell monolayers and suspensions of CHO-E (Chinese hamster ovary cells stably transfected with full-length cDNA encoding human E-selectin) in flow. CHO-E and empty vector constructs (CHO-Mock) were maintained in MEM 10% FBS/1% Penicillin/Streptomycin (Life Technologies, Inc.) and HAM's F-12 (Cellgro, Inc.)/5% FCS/1% Penicillin/Streptomycin, respectively. CHO-E cell tethering and rolling on hematopoietic cell monolayers was visualized by video microscopy in real time using the parallel-plate flow chamber. […] To prepare hematopoietic cell monolayers>90% confluent, suspensions of cells (KG1a, HL60, K562, or RPMI 8402) at 2×10^6/ml RPMI1640 without NaBicarbonate/2% FBS were cytocentrifuged in […] plates at 5×10^6/well and then fixed in 3% glutaraldehyde. Reactive aldehyde groups were blocked in 0.2M lysine, and plated cells were suspended H/H/Ca++. […] The number of CHO-E/Mock cell rolling on each monolayer was measured in one frame of five independent fields under 10× magnification from multiple experiments. A minimum of 3 experiments was performed and results were expressed as the mean±standard deviation.

HL60 cells = experiment: CHO-E cell rolling on glutaraldehyde-fixed HL60 monolayers; assay type: cell-based, human; settings: 2.8 dynes/cm^2; EDTA 5 mM; HECA 452 50 μg/ml
Excerpt: as §1

L-selectin = biological target: T1, L-selectin; experiment: Stamper-Woodruff assay, lymphocyte adherence to immunoprecipitated CD44 and PSGL-1; assay type: cell-based; settings: 80 rpm; for Mean Number of Bound Lymphocytes: 0.75 μg/spot (PSGL-1 1 μg/spot), 4° C., 100× mag.
Protocol: These protein spots were then fixed in 3% glutaraldehyde, unreactive aldehyde groups were blocked in 0.2M lysine and slides were kept in RPMI-1640 without NaBicarbonate/2% FBS until ready for testing. Lymphocytes (10^7/ml RPMI-1640 without NaBicarbonate/5% FBS) were overlayed onto these fixed immunoprecipitates and incubated on an orbital shaker at 80 rpm for 30 min. at 4° C. The number of adherent lymphocytes was quantified by light microscopy using an ocular grid under 100× magnification (a minimum of 5 fields/slide, 2 slides/experiment, and 3 separate experiments). Data were presented as the mean number of bound lymphocytes±standard deviation. KG1a CD34 and L-selectin control immunoprecipitates were also tested in this manner. To verify the dependence for sialic acid, glutaraldehyde-fixed spots were treated with Vibrio cholerae neuraminidase (0.1 U/ml RPMI-1640 without NaBicarbonate/2% FBS for lhr at 37° C.).
Immunoaffinity purified material (0.75-3 μg/spot) was spotted onto glass slides for analyses in the Stamper-Woodruff assay (See below for assay description). For autoradiographic analysis of immunoprecipitated [^35S]-methionine-radiolabeled CD44 and PSGL-1, immunoprecipitates were spotted onto glass slides, allowed to dry and exposed Kodak BioMax-MR film for 12 h at −80° C. Densitometric analysis (optical density) of the autoradiograms was performed with a Hewlett-Packard Scanj et 5200C scanner and NIH Image processing and analysis program.

E-selectin [1] = biological target: T2, E-selectin; experiment: Blot rolling assay with CHO-E cells; assay type: cell-based; settings: immunoprecipitated CD44 on Western blot; 3.8 dynes/cm^2
Protocol: The blot rolling assay was performed as previously described (Dimitroff et al., 2000). Briefly, CHO-E, CHO—P or CHO-Mock transfectants were isolated as described above, washed twice in HBSS and suspended at 10^7/ml in HBSS/10 mM HEPES/2mMCaCl2 (H/H/Ca++)/10% glycerol. Western blots of HPC membrane preparations stained with HECA-452 were rendered transparent by incubating them in H/H/Ca++/10% glycerol. The blots were then placed in the parallel-plate flow chamber, and CHO transfectants (2×10^6/ml) were perfused into the chamber. After allowing the cells to come in contact with the blotting membrane, the flow rate was adjusted to exert a shear stress of 3.8 dynes/cm^2. The viscosity of 10% glycerol adhesion assay medium was considered in the calculation of shear stress values. The number of cells rolling on and between each immunostained banding region was quantified under 100× magnification within each field of view on the video monitor using molecular weight markers (Kaleidoscope Molecular Weight Markers, Bio-Rad Lab.; See Blue® from Novex, Inc.) as guides to help align and visualize the apparent molecular weights of the proteins of interest. A minimum of 3 experiments was performed and results were expressed as the mean±SD of cell rolling/field at 100× magnification.

E-selectin [2] = biological target: T2, E-selectin; experiment: CHO-E cell rolling on immobilized immunoprecipitates, parallel-plate flow chamber; assay type: cell-based; settings: immunoprecipitates on plastic; 2.8 dynes/cm^2
Protocol: CD44 was immunoprecipitated from untreated cell lysates or from cell lysates treated with N-glycosidase-F (0.8 U/ml) Vibrio cholerae neuraminidase (0.1 U/ml) or a-L-fucosidase (80 mU/ml), and PSGL-1 was immunoprecipitated from untreated cell lysates as previously described (Sackstein and Dimitroff, 2000; Dimitroff et al., 2000).
CD44 or PSGL-1 immunoprecipitates were spotted onto plastic petri dishes, fixed in 3% glutaraldehyde and incubated in 0.2M lysine to block unreactive aldehyde groups, and then non-specific binding was prevented by incubating in 100% FBS for 1 hr at RT. Fixed spots were also treated with Vibrio cholerae neuraminidase (0.1 U/ml assay medium), which was overlaid onto the spots and incubated at 37° C. for 1 hr. […] The flow rate was then increased to achieve a shear stress of 2.8 dynes/cm^2. The frequency of cells rolling per 100× magnification field was determined, and data were expressed as the mean±standard deviation of 8 fields visualized from a minimum of 3 experiments.

Molecule	Mean Number of Bound Lymphocytes (L-selectin)	E-selectin ligand activity (CHO-E cell rolling) (E-selectin [2])	other results
O=C(O)CN(CCN(CC(=O)O)CC(=O)O)CC(=O)O [EDTA]	–	–	CHO-E cell rolling / E-selectin ligand activity of KG1a cells (KG1a cells): completely inhibited; CHO-E cell rolling / E-selectin ligand activity of HL60 cells (HL60 cells): completely inhibited
AML (M1) CD44: CD44 (HCELL) immunoprecipitated from blasts of an AML without maturation (M1)	425.3	–	fold higher mean number of lymphocytes bound to CD44 than to PSGL-1 (L-selectin; p<0.001): 3 fold
AML (M1) N-glycosidase-F CD44: N-glycosidase-F-treated CD44 from AML (M1) blasts	23.4	–	–
BMEC-1 CD44: CD44 from human BM endothelial cell line BMEC-1	–	–	E-selectin ligand activity (CHO-E cell rolling) in blot rolling assay (E-selectin [1]): did not possess any E-selectin ligand activity
HL60 CD44: CD44 immunoprecipitated from HL60 cells	6.5	did not support any CHO-E cell rolling	–
K562 CD44: CD44 isolated from K562 cells	–	did not support any CHO-E cell rolling	–
RPMI 8402 CD44: CD44 isolated from RPMI 8402 cells	–	did not support any CHO-E cell rolling	–
a-L-fucosidase-treated KG1a CD44: CD44 immunoprecipitated from a-L-fucosidase-treated KG1a lysate	–	abrogated CHO-E cell rolling	–
CD34 (Molecular Control): CD34 (QBend-10) immunoprecipitated from KG1a cells, negative molecular control (protein) SLDNNGTATPELPTQGTFSNVSTNVSYQETTTPSTLGSTSLHPVSQHGNEATTNITETTVKFTSTSVITSVYGNTNSSVQSQTSVISTVFTTPANVSTPETTLKPSLSPGNVSDLSTTSTSLATSPTKPYTSSSPILSDIKAEIKCSGIREVKLTQGICLEQNKTSSCAEFKKDRGEGLARVLCGEEQADADAGAQVCSLLLAQSEVRPQCLLLVLANRTEISSKLQLMKKHQSDLKKLGILDFTEQDVASHQSYSQKTLIALVTSGALLAVLGITGYFLMNRRSWSPTGERLGEDPYYTENGGGQGYSSGPGTSPEAQGKASVNRGAQENGTGQATSRNGHSARQHVVADTEL	4.0	–	–
L-selectin (Molecular Control): L-selectin (LAM 1-3) immunoprecipitated from KG1a cells, negative molecular control (protein) WTYHYSEKPMNWQRARRFCRDNYTDLVAIQNKAEIEYLEKTLPFSRSYYWIGIRKIGGIWTWVGTNKSLTEEAENWGDGEPNNKKNKEDCVEIYIKRNKDAGKWNDDACHKLKAALCYTASCQPWSCSGHGECVEIINNYTCNCDVGYYGPQCQFVIQCEPLEAPELGTMDCTHPLGNFSFSSQCAFSCSEGTNLTGIEETTCGPFGNWSSPEPTCQVIQCEPLSAPDLGIMNCSHPLASFSFTSACTFICSEGTELIGKKKTICESSGIWSNPSPICQKLDKSFSMIKEGDYNPLFIPVAVMVTAFSGLAFIIWLARRLKKGKKSKRSMNDPY	0.5	–	–
HL60 PSGL-1: PSGL-1 immunoprecipitated from HL60 cells (protein) QATEYEYLDYDFLPETEPPEMLRNSTDTTPLTGPGTPESTTVEPAARRSTGLDAGGAVTELTTELANMGNLSTDSAAMEIQTTQPAATEAQTTQPVPTEAQTTPLAATEAQTTRLTATEAQTTPLAATEAQTTPPAATEAQTTQPTGLEAQTTAPAAMEAQTTAPAAMEAQTTPPAAMEAQTTQTTAMEAQTTAPEATEAQTTQPTATEAQTTPLAAMEALSTEPSATEALSMEPTTKRGLFIPFSVSSVTHKGIPMAASNLSVNYPVGAPDHISVKQCLLAILILALVATIFFVCTVVLAVRLSRKGHMYPVRNYSPTEMVCISSLLPDGGEGPSATANGGLSKAKSPGLTPEPREDREGDDLTLHSFLP	11.0	–	–
AML (M1) PSGL-1: PSGL-1 immunoprecipitated from AML (M1) blasts (protein) QATEYEYLDYDFLPETEPPEMLRNSTDTTPLTGPGTPESTTVEPAARRSTGLDAGGAVTELTTELANMGNLSTDSAAMEIQTTQPAATEAQTTQPVPTEAQTTPLAATEAQTTRLTATEAQTTPLAATEAQTTPPAATEAQTTQPTGLEAQTTAPAAMEAQTTAPAAMEAQTTPPAAMEAQTTQTTAMEAQTTAPEATEAQTTQPTATEAQTTPLAAMEALSTEPSATEALSMEPTTKRGLFIPFSVSSVTHKGIPMAASNLSVNYPVGAPDHISVKQCLLAILILALVATIFFVCTVVLAVRLSRKGHMYPVRNYSPTEMVCISSLLPDGGEGPSATANGGLSKAKSPGLTPEPREDREGDDLTLHSFLP	141.5	–	–
